Target: T1, wild-type CHIP (carboxyl terminus of Hsc70-interacting protein) (human), Q9UNE7
T1 chain: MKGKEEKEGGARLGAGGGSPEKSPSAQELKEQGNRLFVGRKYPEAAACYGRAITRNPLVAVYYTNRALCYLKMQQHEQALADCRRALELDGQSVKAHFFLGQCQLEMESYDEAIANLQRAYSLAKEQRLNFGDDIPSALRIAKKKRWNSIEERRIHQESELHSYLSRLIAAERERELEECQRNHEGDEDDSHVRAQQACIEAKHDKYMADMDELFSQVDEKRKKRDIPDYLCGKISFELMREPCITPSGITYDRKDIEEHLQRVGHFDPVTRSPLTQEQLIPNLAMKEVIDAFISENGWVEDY
Assay: SEC
Conditions: remark: other sources report otherwise

B1: wild-type CHIP (carboxyl terminus of Hsc70-interacting protein), Q9UNE7 1-303 (enzyme)
chain: T1 chain
Work on B1 yielded a stoichiometry N of 2.

From article doi:10.1101/2021.04.16.440242
